The values that follow come from patent publication US20020039577A1 (published 2002).

The target in test [1] is T1, L104EA29YIg (human, UniProt P16410 38-161; P01857 99-330 = IgG part, A29Y; L104E).
T1 construct: extracellular domain;domain: hinge, CH2 and CH3 regions of IgC1; Same mobility as dimeric CTLA4Ig; Positions count from methionine +1, not on the UniProt precursor; also called double-site CTLA4 mutant molecule; ATCC PTA-2104
Put plainly: flow cytometry on human CD80-transfected CHO cells. On the procedure:
(§1) Bound immunoglobulin fusion protein was detected using fluorescein isothiocyanate-conjugated goat anti-human immunoglobulin.
(§2) Binding on a total of 5,000 viable cells was analyzed (single determination) on a FACScan, and mean fluorescence intensity (MFI) was determined from data histograms using PC-LYSYS.

The target in test [2] is T1, L104EA29YIg. Put plainly: flow cytometry on human CD86-transfected CHO cells. On the procedure: as §1, §2

T1 sequence (P16410 other isoform, or with tags, fused parts or gaps A29Y/L104E): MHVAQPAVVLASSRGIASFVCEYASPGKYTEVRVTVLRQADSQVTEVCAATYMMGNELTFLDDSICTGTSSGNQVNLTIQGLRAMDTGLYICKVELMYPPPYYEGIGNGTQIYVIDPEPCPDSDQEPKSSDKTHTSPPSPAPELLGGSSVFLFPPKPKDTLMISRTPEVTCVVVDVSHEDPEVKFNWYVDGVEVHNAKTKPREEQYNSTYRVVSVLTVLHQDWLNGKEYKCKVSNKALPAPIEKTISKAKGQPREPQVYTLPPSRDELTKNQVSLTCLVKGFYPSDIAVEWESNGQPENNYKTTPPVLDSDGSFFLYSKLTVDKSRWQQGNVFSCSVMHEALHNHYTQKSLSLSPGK

B1: human CD80 on stably transfected CHO cells (ligand, UniProt P33681 35-288, looked up)
chain: VIHVTKEVKEVATLSCGHNVSVEELAQTRIYWQKEKKMVLTMMSGDMNIWPEYKNRTIFDITNNLSIVILALRPSDEGTYECVVLKYEKDAFKREHLAEVTLSVKADFPTPSISDFEIPTSNIRRIICSTSGGFPEPHLSWLENGEELNAINTTVSQDPETELYAVSSKLDFNMTTNHSFMCLIKYGHLRVNQTFNWNTTKQEHFPDNLLPSWAITLISVNGIFVICCLTYCFAPRCRERRRNERLRRESVRPV
notes: whole, on cells; also called CD80-positive CHO cells; CD80+ CHO cells
B1: in the test with L104EA29YIg [1], the binding result was “binds”.

B2: human CD86 on stably transfected CHO cells (ligand, UniProt P42081 24-329, looked up)
chain: APLKIQAYFNETADLPCQFANSQNQSLSELVVFWQDQENLVLNEVYLGKEKFDSVHSKYMGRTSFDSDSWTLRLHNLQIKDKGLYQCIIHHKKPTGMIRIHQMNSELSVLANFSQPEIVPISNITENVYINLTCSSIHGYPEPKKMSVLLRTKNSTIEYDGVMQKSQDNVTELYDVSISLSVSFPDVTSNMTIFCILETDKTRLLSSPFSIELEDPQPPPDHIPWITAVLPTVIICVMVFCLILWKWKKKKRPRNSYKCGTNTMEREESEQTKKREKIHIPERSDEAQRVFKSSKTSSCDKSDTCF
notes: whole, on cells; also called CD86-positive CHO cells; CD86+ CHO cells
Take B2: the binding result with L104EA29YIg [2] was “binds”.
